Experimental data from patent US20260274955A1 (JANUX THERAPEUTICS, published 2026).

Legend:
[1] = biological target: Anti-CD28 Fab (SEQ ID NOs: 202, 203); test: phage binding ELISA on captured Fab, competitor CD28 antigen;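 note: clonal phage supernatant binding in wells preincubated with CD28 antigen in blocking buffer, detected by HRP-conjugated anti-M13 antibody ELISA, compared with blocking buffer alone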
Experimental: (§1) Clonal phage were harvested as crude supernatants and screened via standard ELISAs. […] Prior to the addition of clonal phage, wells were incubated with blocking buffer and CD28 antigen or blocking buffer alone. Without washing or aspirating, clonal phage supernatants were then added to the wells and incubated for a short time. Wells were then washed followed by detection of bound phage using a horse radish conjugated anti-M13 antibody.

[2] = biological target: Anti-CD28 Fab (SEQ ID NOs: 202, 203); test: phage binding ELISA on captured Fab;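 note: clonal phage supernatants added briefly to wells pre-incubated with CD28 antigen or with blocking buffer only, then washed, bound phage read by ELISA using HRP-coupled anti-M13 antibody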
Experimental: as §1

Anti-CD28 Fab (SEQ ID NOs: 202, 203), sequence (VH, as listed by the source, chain 1 of 2): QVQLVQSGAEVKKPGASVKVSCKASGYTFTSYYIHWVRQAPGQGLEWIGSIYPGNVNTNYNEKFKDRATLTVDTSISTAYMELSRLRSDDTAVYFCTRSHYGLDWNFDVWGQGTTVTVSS
Anti-CD28 Fab (SEQ ID NOs: 202, 203), sequence (VL, as listed by the source, chain 2 of 2): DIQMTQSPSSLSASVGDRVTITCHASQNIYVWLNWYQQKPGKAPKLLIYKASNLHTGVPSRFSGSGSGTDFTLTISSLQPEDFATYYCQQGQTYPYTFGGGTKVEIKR

Row | Binder | Anti-CD28 Fab signal in the presence of CD28 [1] | Anti-CD28 Fab (SEQ ID NOs: 202, 203) signal [2]
1 | YCSGHLPMYMAKCL [Phage-853] | 0.13 | 0.62
2 | YCEGHMSEYMRKCL [Phage-841] | 0.1 | 0.69
3 | YCDGHHLEYIDKCL [Phage-838] | 0.06 | 0.69
4 | YCEGHLAVHMSKCL [Phage-854] | 0.06 | 0.62
5 | YCEGHAREYMDKCL [Phage-820] | 0.07 | 0.8
6 | YCEGHSRQYMEKCM [Phage-852] | 0.33 | 0.63
7 | YCDGHELMYMEKCL [Phage-797] | 0.06 | 0.92
8 | YCDGHTPQFRAKCL [Phage-859] | 0.07 | 0.59
9 | YCEGHLPQYLAKCY [Phage-844] | 0.08 | 0.67
10 | YCAGHSLQYLGKCY [Phage-813] | 0.06 | 0.86
11 | YCDGHEPQYMTKCL [Phage-843] | 0.1 | 0.68
12 | YCQGHSVQYMAKCL [Phage-825] | 0.06 | 0.77
13 | YCAGHSVQYMYKCL [Phage-832] | 0.06 | 0.74
14 | YCAGHSAQYMWKCL [Phage-793] | 0.07 | 0.92
15 | YCAGHSAEYIQKCL [Phage-823] | 0.08 | 0.8
16 | YCEGHSSEYMVKCL [Phage-826] | 0.06 | 0.77
17 | YCAGHAAIYMAKCL [Phage-814] | 0.07 | 0.85
18 | YCEGHAQQYMLKCL [Phage-831] | 0.05 | 0.74
19 | YCEGHAQMYMLKCL [Phage-851] | 0.06 | 0.64
20 | YCDGHTGVYKWKCI [Phage-827] | 0.06 | 0.76
21 | YCDGHHAEYMWKCL [Phage-791] | 0.06 | 0.93
22 | YCDGHKWEYLQKCL [Phage-816] | 0.06 | 0.84
23 | YCQGHALQYLQKCL [Phage-835] | 0.08 | 0.71
24 | YCEGHFGMYMSKCL [Phage-833] | 0.07 | 0.73
25 | YCEGHLPWYMSKCL [Phage-837] | 0.09 | 0.69
26 | YCQGHSELYMSKCL [Phage-858] | 0.08 | 0.6

Row | Binder | Anti-CD28 Fab signal in the presence of CD28 [1] | Anti-CD28 Fab (SEQ ID NOs: 202, 203) signal [2]
27 | YCDGHAWWYMEKCL [Phage-849] | 0.06 | 0.64
28 | YCEGHIGDYIAKCL [Phage-857] | 0.36 | 0.61
29 | YCVGHSPEYIWKCL [Phage-796] | 0.06 | 0.92
30 | YCAGHMPQYMSKCL [Phage-834] | 0.05 | 0.72
31 | YCDGHSAEYLGKCL [Phage-795] | 0.07 | 0.92
32 | YCAGHTQEYMLKCL [Phage-824] | 0.06 | 0.78
33 | YCEGHTQAYLAKCL [Phage-792] | 0.1 | 0.93
34 | YCVGHLPLYMPNCL [Phage-842] | 0.11 | 0.68
35 | YCMGHSAEYMGKCL [Phage-848] | 0.06 | 0.64
36 | YCDGHIEMYMSKCM [Phage-855] | 0.06 | 0.61
37 | YCDGHSPQYLWKCL [Phage-822] | 0.05 | 0.8
38 | YCDGHDPQYIRKCI [Phage-817] | 0.06 | 0.83
39 | YCDGHSFEYMAKCL [Phage-794] | 0.06 | 0.92
40 | YCDGHSMEYMAKCL [Phage-821] | 0.07 | 0.8
41 | YCQGHAPWYMVKCL [Phage-840] | 0.08 | 0.69
42 | YCDGHMDAYMSKCL [Phage-847] | 0.06 | 0.65
43 | YCEGHLPMYMQKCM [Phage-818] | 0.07 | 0.82
44 | YCAGHIGEYMDKCL [Phage-828] | 0.58 | 0.75
45 | YCAGHLPQYVSKCL [Phage-836] | 0.06 | 0.7
46 | YCAGHLEMYMSKCL [Phage-798] | 0.07 | 0.91
47 | YCDGHAAWYLQKCL [Phage-850] | 0.07 | 0.64
48 | YCDGHAGIYVLKCL [Phage-829] | 0.08 | 0.75
49 | YCEGHAAVYMHKCL [Phage-846] | 0.09 | 0.67
50 | YCDGHLPRFMVKCL [Phage-839] | 0.07 | 0.69
51 | YCDGHSMTYMAKCI [Phage-815] | 0.06 | 0.84
52 | YCDGHNPVYLAKCL [Phage-830] | 0.08 | 0.74
